What was measured:
Test in all cases: Mass spectroscopy proteomics, semi-quantitative binding affinity of serum proteins (plaqueproteome, Table 2)
Details in all cases: higher number = stronger affinity
[1] = target: T1, Abeta-42 plaque particles (Homo sapiens, UniProt P05067)
T1 construct: Abeta 1-42
In short: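 AD patient serum or plasma (50% in PBS) was incubated with Abeta-42 aggregates (30 μg) for 1 h at 37 °C, then stained with Thioflavin S for 30 min. Labeled particles were FACS-sorted, trypsin/Lys-C digested overnight and analyzed by MS/MS. Sequest searched human UniProt; Scaffold/Protein Prophet validated the identifications.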

Tau plaque particles = test system: Tau plaque particles; design: species or system human
In short: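 Synthetic Tau-74 and Tau-275 peptides (1 mg/mL PBS, 37° C, 2 h) aggregated; 30 μg aggregates incubated with 50% serum/plasma 1 h at 37° C, stained with Thioflavin S, and plaque particles sorted by flow cytometry. Bound proteins trypsin-digested and identified by MS/MS against human UniProt.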

[2] = target: T2, alpha-synuclein plaque particles (Homo sapiens, UniProt P37840)
T2 construct: 140 amino acids polypeptide
In short: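 AD-subject plasma or serum (800 μL of 50%) mixed with 30 μg preformed alpha-synuclein aggregates for 1 h at 37 °C; Thioflavin S-positive particles isolated by flow sorting. After reduction, acrylamide alkylation and overnight tryptic digestion, serum proteins identified by MS/MS with Sequest and Scaffold.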

[3] = test system: Low density cholesterol (Chl small) plaque particles; design: species or system human
In short: (§1)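 Proteins bound to flow-sorted cholesterol plaque particles (large/high-density or small/low-density gates) were identified by LC-MS/MS after trypsin digestion. Particles were formed from 50% atherosclerotic serum or plasma with 30 μg cholesterol aggregates, 1 h, 37 °C. Sequest human database search; Scaffold validation.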

[4] = test system: High Density cholesterol (Chl Large) plaque particles; design: species or system human
In short: as §1

B1: Apolipoprotein M (protein)
chain: MFHQIWAALLYFYGIILNSIYQCPEHSQLTTLGVDGKEFPEVHLGQWYFIAGAAPTKEELATFDPVDNIVFNMAAGSAPMQLHLRATIRMKDGLCVPRKWIYHLTEGSTDLRTEGRPDMKTELFSSSCPGGIMLNETGQGYQRFLLYNRSPHPPEKCVEEFKSLTSCLDSKAFLLTPRNQEACELSNN
[1]
  Semi-quantitative analysis of proteins binding to different plaque particles: Abeta-42: 18
Tau plaque particles
  Semi-quantitative analysis of proteins binding to different plaque particles: Tau: 0
[2]
  Semi-quantitative analysis of proteins binding to different plaque particles: Synuclein: 0
[3]
  Semi-quantitative analysis of proteins binding to different plaque particles: Chl small: 0
[4]
  Semi-quantitative analysis of proteins binding to different plaque particles: Chl Large: 0

B2: Ceruloplasmin (protein)
chain: KEKHYYIGIIETTWDYASDHGEKKLISVDTEHSNIYLQNGPDRIGRLYKKALYLQYTDETFRTTIEKPVWLGFLGPIIKAETGDKVYVHLKNLASRPYTFHSHGITYYKEHEGAIYPDNTTDFQRADDKVYPGEQYTYMLLATEEQSPGEGDGNCVTRIYHSHIDAPKDIASGLIGPLIICKKDSLDKEKEKHIDREFVVMFSVVDENFSWYLEDNIKTYCSEPEKVDKDNEDFQESNRMYSVNGYTFGSLPGLSMCAEDRVKWYLFGMGNEVDVHAAFFHGQALTNKNYRIDTINLFPATLFDAYMVAQNPGEWMLSCQNLNHLKAGLQAFFQVQECNKSSSKDNIRGKHVRHYYIAAEEIIWNYAPSGIDIFTKENLTAPGSDSAVFFEQGTTRIGGSYKKLVYREYTDASFTNRKERGPEEEHLGILGPVIWAEVGDTIRVTFHNKGAYPLSIEPIGVRFNKNNEGTYYSPNYNPQSRSVPPSASHVAPTETFTYEWTVPKEVGPTNADPVCLAKMYYSAVEPTKDIFTGLIGPMKICKKGSLHANGRQKDVDKEFYLFPTVFDENESLLLEDNIRMFTTAPDQVDKEDEDFQESNKMHSMNGFMYGNQPGLTMCKGDSVVWYLFSAGNEADVHGIYFSGNTYLWRGERRDTANLFPQTSLTLHMWPDTEGTFNVECLTTDHYTGGMKQKYTVNQCRRQSEDSTFYLGERTYYIAAVEVEWDYSPQREWEKELHHLQEQNVSNAFLDKGEFYIGSKYKKVVYRQYTDSTFRVPVERKAEEEHLGILGPQLHADVGDKVKIIFKNMATRPYSIHAHGVQTESSTVTPTLPGETLTYVWKIPERSGAGTEDSACIPWAYYSTVDQVKDLYSGLIGPLIVCRRPYLKVFNPRRKLEFALLFLVFDENESWYLDDNIKTYSDHPEKVNKDDEEFIESNKMHAINGRMFGNLQGLTMHVGDEVNWYLMGMGNEIDLHTVHFHGHSFQYKHRGVYSSDVFDIFPGTYQTLEMFPRTPGIWLLHCHVTDHIHAGMETTYTVLQNEDTKSG
[1]
  Semi-quantitative analysis of proteins binding to different plaque particles: Abeta-42: 9
Tau plaque particles
  Semi-quantitative analysis of proteins binding to different plaque particles: Tau: 20
[2]
  Semi-quantitative analysis of proteins binding to different plaque particles: Synuclein: 21
[3]
  Semi-quantitative analysis of proteins binding to different plaque particles: Chl small: 22
[4]
  Semi-quantitative analysis of proteins binding to different plaque particles: Chl Large: 20

B3: Guanine deaminase (protein)
chain: MCAAQMPPLAHIFRGTFVHSTWTCPMEVLRDHLLGVSDSGKIVFLEEASQQEKLAKEWCFKPCEIRELSHHEFFMPGLVDTHIHASQYSFAGSSIDLPLLEWLTKYTFPAEHRFQNIDFAEEVYTRVVRRTLKNGTTTACYFATIHTDSSLLLADITDKFGQRAFVGKVCMDLNDTFPEYKETTEESIKETERFVSEMLQKNYSRVKPIVTPRFSLSCSETLMGELGNIAKTRDLHIQSHISENRDEVEAVKNLYPSYKNYTSVYDKNNLLTNKTVMAHGCYLSAEELNVFHERGASIAHCPNSNLSLSSGFLNVLEVLKHEVKIGLGTDVAGGYSYSMLDAIRRAVMVSNILLINKVNEKSLTLKEVFRLATLGGSQALGLDGEIGNFEVGKEFDAILINPKASDSPIDLFYGDFFGDISEAVIQKFLYLGDDRNIEEVYVGGKQVVPFSSSVKETIHLPASSPHPPPFP
[1]
  Semi-quantitative analysis of proteins binding to different plaque particles: Abeta-42: 5
Tau plaque particles
  Semi-quantitative analysis of proteins binding to different plaque particles: Tau: 0
[2]
  Semi-quantitative analysis of proteins binding to different plaque particles: Synuclein: 0
[3]
  Semi-quantitative analysis of proteins binding to different plaque particles: Chl small: 0
[4]
  Semi-quantitative analysis of proteins binding to different plaque particles: Chl Large: 0

B4: Cluster of Ig alpha-1 chain C region (protein, UniProt P01876 1-398, looked up)
Immunoglobulin heavy constant …: ASPTSPKVFPLSLCSTQPDGNVVIACLVQGFFPQEPLSVTWSESGQGVTARNFPPSQDASGDLYTTSSQLTLPATQCLAGKSVTCHVKHYTNPSQDVTVPCPVPSTPPTPSPSTPPTPSPSCCHPRLSLHRPALEDLLLGSEANLTCTLTGLRDASGVTFTWTPSSGKSAVQGPPERDLCGCYSVSSVLPGCAEPWNHGKTFTCTAAYPESKTPLTATLSKSGNTFRPEVHLLPPPSEELALNELVTLTCLARGFSPKDVLVRWLQGSQELPREKYLTWASRQEPSQGTTTFAVTSILRVAAEDWKKGDTFSCMVGHEALPLAFTQKTIDRLADWQMPPPYVVLDLPQETLEEETPGANLWPTTITFLTLFLLSLFYSTALTVTSVRGPSGNREGPQY
[1]
  Semi-quantitative analysis of proteins binding to different plaque particles: Abeta-42: 9
Tau plaque particles
  Semi-quantitative analysis of proteins binding to different plaque particles: Tau: 12
[2]
  Semi-quantitative analysis of proteins binding to different plaque particles: Synuclein: 12
[3]
  Semi-quantitative analysis of proteins binding to different plaque particles: Chl small: 9
[4]
  Semi-quantitative analysis of proteins binding to different plaque particles: Chl Large: 10

B5: Isoform 2 of Haptoglobin-related protein (protein)
chain: MHVCVCVCVCVYMPVCVDACMCCEAGRPAFRSFLFSLCSDLGAVISLLLWGRQLFALYSGNDVTDISDDRFPKPPEIANGYVEHLFRYQCKNYYRLRTEGDGVYTLNDKKQWINKAVGDKLPECEAVCGKPKNPANPVQRILGGHLDAKGSFPWQAKMVSHHNLTTGATLINEQWLLTTAKNLFLNHSENATAKDIAPTLTLYVGKKQLVEIEKVVLHPNYHQVDIGLIKLKQKVLVNERVMPICLPSKNYAEVGRVGYVSGWGQSDNFKLTDHLKYVMLPVADQYDCITHYEGSTCPKWKAPKSPVGVQPILNEHTFCVGMSKYQEDTCYGDAGSAFAVHDLEEDTWYAAGILSFDKSCAVAEYGVYVKVTSIQHWVQKTIAEN
[1]
  Semi-quantitative analysis of proteins binding to different plaque particles: Abeta-42: 11
Tau plaque particles
  Semi-quantitative analysis of proteins binding to different plaque particles: Tau: 11
[2]
  Semi-quantitative analysis of proteins binding to different plaque particles: Synuclein: 14
[3]
  Semi-quantitative analysis of proteins binding to different plaque particles: Chl small: 12
[4]
  Semi-quantitative analysis of proteins binding to different plaque particles: Chl Large: 15

B6: Catalase (protein)
chain: ADSRDPASDQMQHWKEQRAAQKADVLTTGAGNPVGDKLNVITVGPRGPLLVQDVVFTDEMAHFDRERIPERVVHAKGAGAFGYFEVTHDITKYSKAKVFEHIGKKTPIAVRFSTVAGESGSADTVRDPRGFAVKFYTEDGNWDLVGNNTPIFFIRDPILFPSFIHSQKRNPQTHLKDPDMVWDFWSLRPESLHQVSFLFSDRGIPDGHRHMNGYGSHTFKLVNANGEAVYCKFHYKTDQGIKNLSVEDAARLSQEDPDYGIRDLFNAIATGKYPSWTFYIQVMTFNQAETFPFNPFDLTKVWPHKDYPLIPVGKLVLNRNPVNYFAEVEQIAFDPSNMPPGIEASPDKMLQGRLFAYPDTHRHRLGPNYLHIPVNCPYRARVANYQRDGPMCMQDNQGGAPNYYPNSFGAPEQQPSALEHSIQYSGEVRRFNTANDDNVTQVRAFYVNVLNEEQRKRLCENIAGHLKDAQIFIQKKAVKNFTEVHPDYGSHIQALLDKYNAEKPKNAIHTFVQSGSHLAAREKANL
[1]
  Semi-quantitative analysis of proteins binding to different plaque particles: Abeta-42: 12
Tau plaque particles
  Semi-quantitative analysis of proteins binding to different plaque particles: Tau: 0
[2]
  Semi-quantitative analysis of proteins binding to different plaque particles: Synuclein: 0
[3]
  Semi-quantitative analysis of proteins binding to different plaque particles: Chl small: 0
[4]
  Semi-quantitative analysis of proteins binding to different plaque particles: Chl Large: 0
